Source: patent US20100330095A1 (U3 PHARMA, published 2010)

T1: mouse AXL (mouse, UniProt Q00993 19-888)
T1 construct: whole, on cells; Transiently expressed on HEK293T cells (pcDNA3-mAXL); also called mAXL
T1 sequence (looked up): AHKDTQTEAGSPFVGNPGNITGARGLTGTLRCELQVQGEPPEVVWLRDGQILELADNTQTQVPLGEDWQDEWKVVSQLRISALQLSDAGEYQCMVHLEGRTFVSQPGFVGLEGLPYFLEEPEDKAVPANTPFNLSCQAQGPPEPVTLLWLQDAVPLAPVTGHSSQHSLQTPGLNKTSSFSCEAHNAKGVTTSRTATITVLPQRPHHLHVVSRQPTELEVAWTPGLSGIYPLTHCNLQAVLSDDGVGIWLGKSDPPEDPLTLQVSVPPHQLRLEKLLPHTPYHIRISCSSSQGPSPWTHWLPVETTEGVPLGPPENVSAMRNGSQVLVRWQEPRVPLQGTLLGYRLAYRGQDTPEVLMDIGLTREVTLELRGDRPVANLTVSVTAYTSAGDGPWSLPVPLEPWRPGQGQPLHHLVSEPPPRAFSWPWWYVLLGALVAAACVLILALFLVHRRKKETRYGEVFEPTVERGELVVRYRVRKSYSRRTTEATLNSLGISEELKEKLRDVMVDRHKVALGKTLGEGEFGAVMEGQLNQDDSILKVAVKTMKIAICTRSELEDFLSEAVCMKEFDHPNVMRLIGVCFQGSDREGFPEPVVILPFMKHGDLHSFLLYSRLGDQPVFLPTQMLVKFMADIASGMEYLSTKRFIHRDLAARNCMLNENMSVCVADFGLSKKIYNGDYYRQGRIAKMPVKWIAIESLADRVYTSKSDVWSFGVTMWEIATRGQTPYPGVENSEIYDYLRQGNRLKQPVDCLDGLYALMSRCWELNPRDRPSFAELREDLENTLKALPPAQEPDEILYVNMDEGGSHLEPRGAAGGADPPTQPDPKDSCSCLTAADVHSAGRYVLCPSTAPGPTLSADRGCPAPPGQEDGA

T2: human Mer (human, UniProt Q12866 21-999)
T2 construct: whole, on cells; Transiently expressed on HEK293T cells; also called hMer
T2 sequence (looked up): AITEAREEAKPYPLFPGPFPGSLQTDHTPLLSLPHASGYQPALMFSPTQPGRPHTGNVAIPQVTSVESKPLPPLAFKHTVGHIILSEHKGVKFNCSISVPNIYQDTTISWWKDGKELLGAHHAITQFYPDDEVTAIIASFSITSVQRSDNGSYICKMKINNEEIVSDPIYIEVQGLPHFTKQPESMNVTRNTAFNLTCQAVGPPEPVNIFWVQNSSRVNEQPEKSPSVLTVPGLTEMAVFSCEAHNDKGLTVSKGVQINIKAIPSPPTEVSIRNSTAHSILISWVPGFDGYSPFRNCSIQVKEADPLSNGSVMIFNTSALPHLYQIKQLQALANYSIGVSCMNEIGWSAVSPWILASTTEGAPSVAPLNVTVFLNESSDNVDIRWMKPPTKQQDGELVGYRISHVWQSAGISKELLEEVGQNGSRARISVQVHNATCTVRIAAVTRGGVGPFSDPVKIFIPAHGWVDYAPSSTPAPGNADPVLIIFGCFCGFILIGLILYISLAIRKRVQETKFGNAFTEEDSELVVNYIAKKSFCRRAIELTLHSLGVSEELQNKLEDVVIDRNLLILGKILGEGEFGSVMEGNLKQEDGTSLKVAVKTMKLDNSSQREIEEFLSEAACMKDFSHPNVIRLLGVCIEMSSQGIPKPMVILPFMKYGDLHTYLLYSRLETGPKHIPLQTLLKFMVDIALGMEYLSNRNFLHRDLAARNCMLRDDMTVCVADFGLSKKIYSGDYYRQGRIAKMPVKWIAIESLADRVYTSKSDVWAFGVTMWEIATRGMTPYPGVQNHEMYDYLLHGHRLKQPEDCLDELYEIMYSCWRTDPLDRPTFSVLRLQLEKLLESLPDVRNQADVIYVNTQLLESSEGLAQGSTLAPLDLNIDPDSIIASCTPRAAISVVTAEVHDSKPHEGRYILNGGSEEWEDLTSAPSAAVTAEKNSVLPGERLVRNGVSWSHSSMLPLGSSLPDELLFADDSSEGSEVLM

B1: I 11B7 (antibody, V domains shown)
VH: EVQLQESGPGLVKPSQSLSLTCSVTGYSITSNYWGWIRKFPGDKMEWMGYITYSGSTSYNPSLKSRISITRDTSKNQFFLQLNSVTSEDTATYYCAITTFYYWGQGVMVTVSS
VL: DIQMTQAPSSLPASLGDRVTITCRASQDIGNYLRWFQQKPGKSPRLMISGATNLAAGVPSRFSGSRSGSDYSLTISSLESEDMADYYCLQSKESPWTFGGGTKLELK
notes: rat hybridoma antibody, antagonistic
B2: I 10D12 (antibody, V domains shown)
VH: EVQLQESGPGLVKPSQSLSLTCSVTGYSITSNYWGWIRKFPGNKMEWMGYITNSGGTAYNPSLKSRISITRDTSKNQFFLQLNSVIPEDSATYFCSRTPWDWGQGVMVTVSS
VL: DIQMTQAPSSLPASLGDRVTIACRASQDIGNYLRWFQQKPGKSPRLMISGATNLAAGVPSRFSGSRSGSDYSRTISSLESEDMADYYCLQSKESPWTFGGGTKLELK
notes: rat hybridoma antibody, antagonistic; subclass G1
B3: III 11D5 (antibody, rat IgG2a, V domains shown)
VH: EVQLQESGPGLVKPSQSLSLTCSVTGYSITSNYWGWIRKFPGNKMEWIGHITNSGNTTYNPSLKSRISISRDTSRNQFFLQLNSVTTEDTATYYCAKGAFDYWGQGVMVTVSS
VL: DIQMTQSPSSMSTSLGDRVTITCRASQDIGNYLSWFQQKVGKSPRRMIYGAIKLAVGVPSRFSGSRSGSDYSLTISSLESEDMAIYYCLQYIQFPLTFGSGTKLELK
notes: as for B1

How the values were obtained:
mouse AXL = molecular target: T1, mouse AXL; assay: flow cytometry, transiently transfected HEK293T cells
Protocol: (§1) FIG. 3. Flow cytometry analysis of cross-reactivity of rat-anti AXL antibodies with mouse and cynomolgus monkey AXL as well as human Mer and Sky. HEK293T fibroblasts were transiently transfected with pcDNA3, pcDNA3-hAXL, pcDNA3 mAXL, pcDNA3-cyAXL, pcDNA3-hMer, or pcDNA3-hSky. […] See text for details.
(§2) For FACS analysis, 2×10⁵ cells were harvested with 10 mM EDTA in PBS, washed once with FACS buffer (PBS, 3% FCS, 0.4% azide) and seeded on a 96 well round bottom plate. […] After incubation on ice for 1 h, cells were washed twice with chilled FACS buffer and resuspended with PE-conjugated donkey anti-rat (Jackson) secondary antibody diluted 1:50 in FACS buffer (100 μl/well) or PE-conjugated donkey anti-mouse secondary antibody for control. Protected from light, cells were incubated on ice for 30 min, washed twice with FACS buffer and analyzed using an Epics XL-MCL flow cytometer (Beckman Coulter).

human Mer = molecular target: T2, human Mer; assay: as above
Protocol: as §1, §2

Binder | binding result (mouse AXL) | binding result (human Mer)
B1 | no binding (tested: 10 µg/ml) | no binding (tested: 10 µg/ml)
B2 | no binding (tested: 10 µg/ml) | no binding (tested: 10 µg/ml)
B3 | no binding (tested: 10 µg/ml) | no binding (tested: 10 µg/ml)
